Sequences and labels used below:
B1: OAS1 (parent)
chain: TPAKSLDKFIEDYLLPDTCFRMQI
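Further: lentivirally expressed fusions sorted by FACS into six bins by GFP to DsRed ratio, PSI derived from sequencing read proportions per bin multiplied by bin number.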

The variants in this data set derive from B1. The experiment in a line: protein stability index of a GFP-peptide fusion (GPS, HEK-293T) (PSI 1-6); higher = more stable. The following applies: c terminus: a fixed tail appended.
Turning to TPAKSLDKFIVDYLLPDTCFRMQI [E11V], the protein stability index came out at 3.93. Consider TPAKSLDKFIGDYLLPDTCFRMQI [E11G], for which the protein stability index was 3. As for TPAKSLDKFIIDYLLPDTCFRMQI [E11I], the protein stability index was 2.61. Regarding TPAKSLDKFIPDYLLPDTCFRMQI [E11P], the protein stability index amounted to 3.89. On to TPAKSLDKFICDYLLPDTCFRMQI [E11C], for which the protein stability index is 2.38. The value for TPAKSLDKFILDYLLPDTCFRMQI [E11L] was 3.59; that for TPAKSLDKFIKDYLLPDTCFRMQI [E11K] was 2.83; that for TPAKSLDKFIHDYLLPDTCFRMQI [E11H] was 1.26. TPAKSLDKFIWDYLLPDTCFRMQI [E11W]: the protein stability index is 2.84. In the case of TPAKSLDKFINDYLLPDTCFRMQI [E11N], the protein stability index came out at 3.04. For TPAKSLDKFIFDYLLPDTCFRMQI [E11F], the protein stability index is 2.29. As to TPAKSLDKFIADYLLPDTCFRMQI [E11A], the protein stability index was 2.77. As to TPAKSLDKFITDYLLPDTCFRMQI [E11T], the protein stability index turned out to be 2.33. Turning to TPAKSLDKFIMDYLLPDTCFRMQI [E11M], the protein stability index was 3.78. Turning to TPAKSLDKFIYDYLLPDTCFRMQI [E11Y], the protein stability index came out at 1.66. Regarding TPAKSLDKFIQDYLLPDTCFRMQI [E11Q], the protein stability index is 2.19. Take TPAKSLDKFISDYLLPDTCFRMQI [E11S]: the protein stability index was found to be 1.97.

On to TPAKSLDKFIRDYLLPDTCFRMQI [E11R], for which the protein stability index was 4.73. Turning to TPAKSLDKFIDDYLLPDTCFRMQI [E11D], the protein stability index worked out at 2.34. Consider TPAKSLDKNIEDYLLPDTCFRMQI [F9N], for which the protein stability index came out at 3.1. With TPAKSLDKMIEDYLLPDTCFRMQI [F9M], the protein stability index was 3.26. Next, TPAKSLDKAIEDYLLPDTCFRMQI [F9A]: 2.42; TPAKSLDKLIEDYLLPDTCFRMQI [F9L]: 3.52. Regarding TPAKSLDKVIEDYLLPDTCFRMQI [F9V], the protein stability index worked out at 3.9. For TPAKSLDKHIEDYLLPDTCFRMQI [F9H], the protein stability index is 2.91. For TPAKSLDKYIEDYLLPDTCFRMQI [F9Y], the protein stability index came to 1.96. As to TPAKSLDKDIEDYLLPDTCFRMQI [F9D], the protein stability index is 2.17. On to TPAKSLDKPIEDYLLPDTCFRMQI [F9P], for which the protein stability index worked out at 1.97.

Turning to TPAKSLDKGIEDYLLPDTCFRMQI [F9G], the protein stability index came out at 1.62. On to TPAKSLDKSIEDYLLPDTCFRMQI [F9S], for which the protein stability index came to 2.32. The value for TPAKSLDKQIEDYLLPDTCFRMQI [F9Q] was 2.15; that for TPAKSLDKRIEDYLLPDTCFRMQI [F9R] was 2.08; that for TPAKSLDKTIEDYLLPDTCFRMQI [F9T] was 2.95. Consider TPAKSLDKCIEDYLLPDTCFRMQI [F9C], for which the protein stability index amounted to 2.66.

Regarding TPAKSLDKEIEDYLLPDTCFRMQI [F9E], the protein stability index was 1.75. Consider TPAKSLDKWIEDYLLPDTCFRMQI [F9W], for which the protein stability index stood at 3.55. Consider TPAKSLDKKIEDYLLPDTCFRMQI [F9K], for which the protein stability index amounted to 2.13. TPAKLLDKFIEDYLLPDTCFRMQI [S5L]: the protein stability index stood at 3.15.

For TPAKELDKFIEDYLLPDTCFRMQI [S5E], the protein stability index worked out at 1.74. Regarding TPAKYLDKFIEDYLLPDTCFRMQI [S5Y], the protein stability index is 2.89. For the variant TPAKNLDKFIEDYLLPDTCFRMQI [S5N], the protein stability index is 2.78. For TPAKFLDKFIEDYLLPDTCFRMQI [S5F], the protein stability index was found to be 1.63. TPAKTLDKFIEDYLLPDTCFRMQI [S5T]: the protein stability index was 2.86.

As for TPAKQLDKFIEDYLLPDTCFRMQI [S5Q], the protein stability index came to 2.4. As for TPAKDLDKFIEDYLLPDTCFRMQI [S5D], the protein stability index was 2.02. As for TPAKWLDKFIEDYLLPDTCFRMQI [S5W], the protein stability index came to 1.99. On to TPAKKLDKFIEDYLLPDTCFRMQI [S5K], for which the protein stability index stood at 2.14.

With TPAKRLDKFIEDYLLPDTCFRMQI [S5R], the protein stability index was found to be 3.08. For the variant TPAKVLDKFIEDYLLPDTCFRMQI [S5V], the protein stability index was found to be 3.06.

Consider TPAKILDKFIEDYLLPDTCFRMQI [S5I], for which the protein stability index was found to be 2.43. Take TPAKHLDKFIEDYLLPDTCFRMQI [S5H]: the protein stability index was 1.69.

With TPAKALDKFIEDYLLPDTCFRMQI [S5A], the protein stability index amounted to 2.52. The value for TPAKMLDKFIEDYLLPDTCFRMQI [S5M] was 2.42; that for TPAKCLDKFIEDYLLPDTCFRMQI [S5C] was 2.19; that for TPAKSLDKFIEMYLLPDTCFRMQI [D12M] was 2.77.

On to TPAKSLDKFIESYLLPDTCFRMQI [D12S], for which the protein stability index worked out at 2.1. TPAKSLDKFIENYLLPDTCFRMQI [D12N]: the protein stability index was 2.91.

With TPAKSLDKFIEQYLLPDTCFRMQI [D12Q], the protein stability index was determined as 2.92. As to TPAKSLDKFIEGYLLPDTCFRMQI [D12G], the protein stability index was determined as 1.79.

As for TPAKSLDKFIECYLLPDTCFRMQI [D12C], the protein stability index turned out to be 1.76. Regarding TPAKSLDKFIEKYLLPDTCFRMQI [D12K], the protein stability index worked out at 2.75. With TPAKSLDKFIEHYLLPDTCFRMQI [D12H], the protein stability index amounted to 2.25. Regarding TPAKSLDKFIEAYLLPDTCFRMQI [D12A], the protein stability index is 3.14. In the case of TPAKSLDKFIEEYLLPDTCFRMQI [D12E], the protein stability index amounted to 2.14. Take TPAKSLDKFIEFYLLPDTCFRMQI [D12F]: the protein stability index was 2.97. TPAKSLDKFIEIYLLPDTCFRMQI [D12I]: the protein stability index came out at 1.4. For the variant TPAKSLDKFIERYLLPDTCFRMQI [D12R], the protein stability index stood at 3.33.

Regarding TPAKSLDKFIELYLLPDTCFRMQI [D12L], the protein stability index is 2.81. Next, THAKSLDKFIEDYLLPDTCFRMQI [P2H]: 3.76.

Turning to TGAKSLDKFIEDYLLPDTCFRMQI [P2G], the protein stability index was found to be 3.49. The value for TDAKSLDKFIEDYLLPDTCFRMQI [P2D] was 1.92; that for TSAKSLDKFIEDYLLPDTCFRMQI [P2S] was 1.69. As to TTAKSLDKFIEDYLLPDTCFRMQI [P2T], the protein stability index was 2.82. As for TRAKSLDKFIEDYLLPDTCFRMQI [P2R], the protein stability index came to 2.81. The value for TNAKSLDKFIEDYLLPDTCFRMQI [P2N] was 3.68; that for TFAKSLDKFIEDYLLPDTCFRMQI [P2F] was 3.08; that for TLAKSLDKFIEDYLLPDTCFRMQI [P2L] was 2.82. Consider TMAKSLDKFIEDYLLPDTCFRMQI [P2M], for which the protein stability index is 3.28. For the variant TIAKSLDKFIEDYLLPDTCFRMQI [P2I], the protein stability index came to 2.16.

Take TCAKSLDKFIEDYLLPDTCFRMQI [P2C]: the protein stability index came out at 3.55. Regarding TVAKSLDKFIEDYLLPDTCFRMQI [P2V], the protein stability index was found to be 1.74. Take TQAKSLDKFIEDYLLPDTCFRMQI [P2Q]: the protein stability index turned out to be 2.97. As for TWAKSLDKFIEDYLLPDTCFRMQI [P2W], the protein stability index turned out to be 3.86.

For the variant TPADSLDKFIEDYLLPDTCFRMQI [K4D], the protein stability index came to 2.19.

In the case of TPANSLDKFIEDYLLPDTCFRMQI [K4N], the protein stability index was 2.52. As to TPASSLDKFIEDYLLPDTCFRMQI [K4S], the protein stability index was determined as 2.24. As to TPAISLDKFIEDYLLPDTCFRMQI [K4I], the protein stability index is 1.9. Turning to TPAFSLDKFIEDYLLPDTCFRMQI [K4F], the protein stability index worked out at 2.9.

Take TPATSLDKFIEDYLLPDTCFRMQI [K4T]: the protein stability index turned out to be 2.48. Regarding TPAWSLDKFIEDYLLPDTCFRMQI [K4W], the protein stability index worked out at 3.85.

Regarding TPAHSLDKFIEDYLLPDTCFRMQI [K4H], the protein stability index is 2.59. Regarding TPACSLDKFIEDYLLPDTCFRMQI [K4C], the protein stability index is 2.29. With TPALSLDKFIEDYLLPDTCFRMQI [K4L], the protein stability index is 2.23. As for TPAPSLDKFIEDYLLPDTCFRMQI [K4P], the protein stability index amounted to 2.13.

Source of the values: the supplement of paper PMC10567573.
